{"source": "patent US20240425603A1", "about": "(Janssen / Centocor, published 2024)", "binders": {"B1": {"name": "human VEGFA165 (ligand, UniProt P15692-4 27-191, looked up)", "chain": "APMAEGGGQNHHEVVKFMDVYQRSYCHPIETLVDIFQEYPDEIEYIFKPSCVPLMRCGGCCNDEGLECVPTEESNITMQIMRIKPHQGQHIGEMSFLQHNKCECRPKKDRARQENPCGPCSERRKHLFVQDPQTCKCSCKNTDSRCKARQLELNERTCRCDKPRR", "notes": "used unlabeled and biotin labeled; also called human VEGF165 (R&D Systems); hVEGFA165"}}, "key": {"[1]": {"biological_target": "recombinant human VEGFR1 (D1-D3) (human, UniProt P17948 27-328, limits assumed)", "sequence (P17948 27-328 limits assumed)": "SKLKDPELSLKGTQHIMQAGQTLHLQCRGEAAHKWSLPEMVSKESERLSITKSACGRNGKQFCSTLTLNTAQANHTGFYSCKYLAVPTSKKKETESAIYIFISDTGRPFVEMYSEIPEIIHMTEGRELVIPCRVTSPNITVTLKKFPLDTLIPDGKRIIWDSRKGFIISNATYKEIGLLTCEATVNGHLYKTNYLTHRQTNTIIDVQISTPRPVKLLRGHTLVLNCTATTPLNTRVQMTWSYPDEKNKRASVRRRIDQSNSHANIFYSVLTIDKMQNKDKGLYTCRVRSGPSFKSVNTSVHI", "test": "SPR; VEGFR1 D1-D3"}, "human VEGFR1 (D2-D3)": {"biological_target": "human VEGFR1 (D2-D3) (human, UniProt P17948 130-331)", "test": "SPR; VEGFR1 D2-D3"}, "[2]": {"biological_target": "T1, Recombinant human VEGFR1-Fc (R&D Systems) (human, UniProt P17948 27-687, limits assumed)", "T1 construct": "bought; not shown: Fc part of the bought fusion, not described", "T1 sequence (P17948 27-687 limits assumed)": "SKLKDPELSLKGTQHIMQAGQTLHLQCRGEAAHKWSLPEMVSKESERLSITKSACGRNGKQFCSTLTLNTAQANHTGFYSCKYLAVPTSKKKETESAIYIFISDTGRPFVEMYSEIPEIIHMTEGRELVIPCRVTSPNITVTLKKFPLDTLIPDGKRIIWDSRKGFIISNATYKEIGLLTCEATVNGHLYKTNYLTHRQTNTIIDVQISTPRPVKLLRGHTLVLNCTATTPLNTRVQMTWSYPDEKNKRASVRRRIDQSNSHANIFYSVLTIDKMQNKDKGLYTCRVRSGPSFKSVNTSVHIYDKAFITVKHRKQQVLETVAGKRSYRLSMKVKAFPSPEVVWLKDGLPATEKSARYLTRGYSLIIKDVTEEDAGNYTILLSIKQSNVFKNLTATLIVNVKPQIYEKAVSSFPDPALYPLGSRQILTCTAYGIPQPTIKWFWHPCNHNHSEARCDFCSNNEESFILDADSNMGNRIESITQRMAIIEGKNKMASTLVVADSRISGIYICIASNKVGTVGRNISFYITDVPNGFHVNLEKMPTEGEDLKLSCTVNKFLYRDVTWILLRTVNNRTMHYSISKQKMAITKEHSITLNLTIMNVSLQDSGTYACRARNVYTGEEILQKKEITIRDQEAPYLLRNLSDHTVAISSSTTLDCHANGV", "test": "MSD ECL competition on plate-bound human VEGFR1-Fc; competitor biotin human VEGFA165 (0.2 nM)", "summary_of_the_method": "(§1)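 IC50 and maximal percent inhibition come from electro-chemiluminescence readings of bound ligand, detected with Sulfo-tagged streptavidin on an MSD SECTOR S 600 imager. Receptor (human or mouse VEGFR1-Fc, or His-tagged cyno VEGFR1, 0.5 ug/ml) was captured for 1 hour at room temperature on Protein A/G- or anti-His mAb-coated MSD 384 plates blocked with Blocker A. Half-log antibody dilutions were pre-incubated for 30 minutes before biotinylated VEGFA (0.2 nM) or PlGF (2 nM) was added.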"}, "His tagged cyno VEGFR1 [3]": {"biological_target": "T2, His tagged cyno VEGFR1 (cynomolgus monkey, UniProt A0A2K5VAF2 27-758)", "test": "MSD ECL competition on plate-bound His-tagged cyno VEGFR1; competitor biotin human VEGFA165 (0.2 nM)", "summary_of_the_method": "as §1"}, "[4]": {"biological_target": "T1, Recombinant human VEGFR1-Fc (R&D …)", "test": "MSD ECL competition on plate-bound human VEGFR1-Fc; competitor biotin PlGF (2 nM)", "summary_of_the_method": "as §1"}, "His tagged cyno VEGFR1 [5]": {"biological_target": "T2, His tagged cyno VEGFR1", "test": "MSD ECL competition on plate-bound His-tagged cyno VEGFR1; competitor biotin human PlGF (2 nM)", "summary_of_the_method": "as §1"}, "human VEGFA165 [6]": {"biological_target": "B1", "test": "SPR; VEGFR1 D2 alone"}, "human VEGFA165 [7]": {"biological_target": "B1", "test": "SPR; against the D1-D3 and D2-D3 constructs"}, "[8]": {"biological_target": "human VEGFR1 (soluble antigen of the KinExA and SPR affinity assays) (human, UniProt P17948 27-758, limits assumed)", "sequence (P17948 27-758 limits assumed)": "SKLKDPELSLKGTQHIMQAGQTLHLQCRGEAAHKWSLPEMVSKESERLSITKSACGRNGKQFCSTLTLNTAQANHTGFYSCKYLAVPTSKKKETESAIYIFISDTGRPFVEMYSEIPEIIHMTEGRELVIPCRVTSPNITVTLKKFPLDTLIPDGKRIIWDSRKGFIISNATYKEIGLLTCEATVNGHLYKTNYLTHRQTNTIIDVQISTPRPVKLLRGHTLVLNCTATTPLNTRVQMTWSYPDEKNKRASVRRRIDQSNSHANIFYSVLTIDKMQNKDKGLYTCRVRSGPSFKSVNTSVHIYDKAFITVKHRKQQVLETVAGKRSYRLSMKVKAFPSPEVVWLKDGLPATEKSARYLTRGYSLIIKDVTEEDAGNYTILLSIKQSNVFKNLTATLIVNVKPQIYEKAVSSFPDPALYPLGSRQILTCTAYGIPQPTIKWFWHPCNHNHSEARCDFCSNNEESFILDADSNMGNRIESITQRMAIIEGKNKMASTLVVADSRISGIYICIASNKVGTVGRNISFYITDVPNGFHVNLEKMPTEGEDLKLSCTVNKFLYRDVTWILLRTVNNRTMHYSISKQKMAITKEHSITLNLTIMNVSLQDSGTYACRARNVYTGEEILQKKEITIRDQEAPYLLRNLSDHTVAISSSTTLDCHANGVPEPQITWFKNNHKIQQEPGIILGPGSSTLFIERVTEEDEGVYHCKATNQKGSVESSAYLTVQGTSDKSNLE", "test": "KinExA, solution", "procedure": "(§2) Kinetic exclusion assay (KEA; KinExA) was used to analyze the binding of anti-VEGFR1 antibodies to human, mouse and cynomolgus monkeys VEGFR1. KEA is a fluorescence-based solution method, and it is described in detail in the literature (Darling and Brault, 2004). To measure the affinity of an interaction, a series of solutions with a fixed concentration of one interactant (A) and varying concentrations of another interactant (B) are prepared and allowed to reach equilibrium. After equilibration, the concentration of free A is determined by flowing the equilibrated mixture through a column packed with beads modified with reactant B. Free A binds to the beads and is then detected using a fluorescently labeled polyclonal antibody.\n(§3) Briefly, fixed concentrations (300 pM, 60 pM, 12 pM, 2.4 or 0.5 pM) of Ab were used to prepare a serial dilution of the antigen (2 nM to 0.52 pM, or 800 pM to 5.37 fM). The complex titrations were incubated at RT to reach binding equilibrium for at least 2 days. After incubation, the samples were run on the KinExA3200 or KinExA4000 instrument to assess free antibody in the reaction. During these studies some of the data were rejected because the experiments failed or failed the acceptance criteria. For mouse VEGFR1 the 60 and 300 pM concentrations were rejected due to high titrant related NSB. The dissociation equilibrium constant, (KD), was determined using the n-curve analysis feature of the KinExA Pro software. This program uses nonlinear least-square regression analysis of the globally fitted data to a 1:1 binding model. (CI=confidence interval)."}, "[9]": {"biological_target": "cynomolgus monkey VEGFR1 (soluble antigen of the KinExA and SPR affinity assays) (cynomolgus monkey)", "test": "KinExA, solution", "procedure": "as §2, §3"}, "[10]": {"biological_target": "T3, mouse VEGFR1 (soluble antigen of the KinExA and SPR affinity assays) (mouse, UniProt P35969 23-759, limits assumed)", "T3 sequence (looked up)": "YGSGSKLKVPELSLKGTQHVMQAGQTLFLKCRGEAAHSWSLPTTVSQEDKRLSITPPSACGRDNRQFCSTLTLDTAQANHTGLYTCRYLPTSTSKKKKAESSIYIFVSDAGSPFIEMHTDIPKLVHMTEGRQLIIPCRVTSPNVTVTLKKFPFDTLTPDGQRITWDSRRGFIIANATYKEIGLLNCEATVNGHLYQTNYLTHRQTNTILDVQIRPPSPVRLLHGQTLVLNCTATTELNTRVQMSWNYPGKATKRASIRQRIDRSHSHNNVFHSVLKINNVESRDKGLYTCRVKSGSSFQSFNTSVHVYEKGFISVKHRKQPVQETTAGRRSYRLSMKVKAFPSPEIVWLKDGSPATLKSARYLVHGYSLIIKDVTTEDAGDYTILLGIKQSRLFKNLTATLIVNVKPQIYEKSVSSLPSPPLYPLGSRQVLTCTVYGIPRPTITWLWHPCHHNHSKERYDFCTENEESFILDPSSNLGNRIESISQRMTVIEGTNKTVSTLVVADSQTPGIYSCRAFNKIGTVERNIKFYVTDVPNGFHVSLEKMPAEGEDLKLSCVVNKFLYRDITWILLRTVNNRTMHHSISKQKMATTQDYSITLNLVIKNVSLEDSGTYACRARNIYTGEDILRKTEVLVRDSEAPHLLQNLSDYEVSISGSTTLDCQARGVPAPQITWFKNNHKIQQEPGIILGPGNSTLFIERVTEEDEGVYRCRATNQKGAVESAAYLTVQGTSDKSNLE", "test": "KinExA, solution", "procedure": "as §2, §3"}, "[11]": {"biological_target": "T4, human VEGFR1, full length, over-expressed on cells (human, UniProt P17948 27-1338)", "T4 construct": "on CHO-K1 or HEK cells; also called hVEGFR1; CHOK1/ human VEGFR1", "T4 sequence (P17948 27-1338 limits assumed)": "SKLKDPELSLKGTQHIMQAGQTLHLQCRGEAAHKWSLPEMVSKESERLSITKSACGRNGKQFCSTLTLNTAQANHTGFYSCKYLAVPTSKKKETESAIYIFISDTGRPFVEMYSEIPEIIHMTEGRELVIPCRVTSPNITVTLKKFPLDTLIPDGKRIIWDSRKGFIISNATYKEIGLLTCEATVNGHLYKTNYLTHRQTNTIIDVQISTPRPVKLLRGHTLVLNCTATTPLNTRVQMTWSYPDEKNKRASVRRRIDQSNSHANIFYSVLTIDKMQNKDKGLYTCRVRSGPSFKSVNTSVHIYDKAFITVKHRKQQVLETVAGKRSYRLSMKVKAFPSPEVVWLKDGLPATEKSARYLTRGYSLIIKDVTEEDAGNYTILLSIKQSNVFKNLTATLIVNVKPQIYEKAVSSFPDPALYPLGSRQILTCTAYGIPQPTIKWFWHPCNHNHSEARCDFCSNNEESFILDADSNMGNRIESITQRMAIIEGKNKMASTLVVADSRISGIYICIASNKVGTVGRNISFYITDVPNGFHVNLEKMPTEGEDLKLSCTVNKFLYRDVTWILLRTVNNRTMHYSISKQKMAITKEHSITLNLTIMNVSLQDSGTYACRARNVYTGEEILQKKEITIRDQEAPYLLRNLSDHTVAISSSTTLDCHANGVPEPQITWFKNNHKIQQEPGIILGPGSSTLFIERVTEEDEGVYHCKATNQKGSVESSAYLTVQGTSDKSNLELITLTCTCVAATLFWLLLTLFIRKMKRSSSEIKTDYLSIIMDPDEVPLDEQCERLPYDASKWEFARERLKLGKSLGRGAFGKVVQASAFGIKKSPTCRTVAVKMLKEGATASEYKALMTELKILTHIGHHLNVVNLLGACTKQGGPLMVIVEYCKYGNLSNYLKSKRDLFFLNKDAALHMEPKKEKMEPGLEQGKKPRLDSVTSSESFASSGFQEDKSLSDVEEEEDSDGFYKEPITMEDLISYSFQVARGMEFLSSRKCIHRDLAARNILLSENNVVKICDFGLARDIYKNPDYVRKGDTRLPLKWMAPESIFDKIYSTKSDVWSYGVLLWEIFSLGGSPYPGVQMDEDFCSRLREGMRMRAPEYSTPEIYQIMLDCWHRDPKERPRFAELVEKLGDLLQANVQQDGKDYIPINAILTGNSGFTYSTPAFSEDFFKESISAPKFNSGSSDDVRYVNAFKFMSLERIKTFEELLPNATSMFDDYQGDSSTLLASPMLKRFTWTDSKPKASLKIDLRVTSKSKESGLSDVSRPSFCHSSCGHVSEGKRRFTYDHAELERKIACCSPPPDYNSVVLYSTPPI", "test": "cell binding assay (column head prints IC50)"}, "[12]": {"biological_target": "T1, Recombinant human VEGFR1-Fc (R&D …)", "test": "biochemical ligand blocking assay; ligand and receptor form not given", "summary_of_the_method": "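IC50 values come from a biochemical electro-chemiluminescence ligand blocking assay. Recombinant VEGFR1-Fc, captured on Protein A/G-coated MSD plates, was pre-incubated for 30 minutes with half-log antibody dilutions before biotinylated ligand was added and then detected on an MSD imager using Sulfo-tagged streptavidin.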"}, "[13]": {"biological_target": "T5, Recombinant mouse VEGFR1-Fc (R&D Systems) (mouse, UniProt P35969 27-759, limits assumed)", "T5 construct": "bought; not shown: Fc part of the bought fusion, not described", "T5 sequence (looked up)": "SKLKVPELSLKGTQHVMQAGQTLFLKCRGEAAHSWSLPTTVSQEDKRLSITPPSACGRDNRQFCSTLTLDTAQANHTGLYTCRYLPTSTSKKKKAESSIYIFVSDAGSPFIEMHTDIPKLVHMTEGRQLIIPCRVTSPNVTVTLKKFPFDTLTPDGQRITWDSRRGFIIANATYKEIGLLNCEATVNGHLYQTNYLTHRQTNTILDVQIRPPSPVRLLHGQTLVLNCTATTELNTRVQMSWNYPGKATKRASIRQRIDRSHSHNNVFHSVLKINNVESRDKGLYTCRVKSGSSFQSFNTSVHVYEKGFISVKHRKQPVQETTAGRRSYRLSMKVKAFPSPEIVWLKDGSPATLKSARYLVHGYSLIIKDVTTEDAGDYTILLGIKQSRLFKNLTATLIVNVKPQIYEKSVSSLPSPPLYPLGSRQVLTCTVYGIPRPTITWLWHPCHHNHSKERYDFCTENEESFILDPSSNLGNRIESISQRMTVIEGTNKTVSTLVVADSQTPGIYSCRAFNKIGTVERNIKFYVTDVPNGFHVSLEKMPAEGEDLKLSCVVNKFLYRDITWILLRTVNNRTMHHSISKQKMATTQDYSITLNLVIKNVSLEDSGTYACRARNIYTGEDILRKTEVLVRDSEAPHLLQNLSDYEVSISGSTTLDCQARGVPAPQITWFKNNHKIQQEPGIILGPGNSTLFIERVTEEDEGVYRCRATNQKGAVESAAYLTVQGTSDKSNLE", "test": "MSD ECL competition on plate-bound mouse VEGFR1-Fc; competitor biotin mouse VEGFA164 (0.2 nM)", "summary_of_the_method": "as §1"}}}
{"binder": "B1", "values": [{"measurement": "Kd", "setting": "[1]", "value": "< 45", "unit": "pM"}, {"measurement": "Kd", "setting": "human VEGFR1 (D2-D3)", "value": "< 30", "unit": "pM"}, {"measurement": "IC50", "setting": "[2]", "value": 156, "unit": "pM"}, {"measurement": "Max % Inh.", "setting": "[2]", "value": 100, "unit": "%"}, {"measurement": "IC50", "setting": "His tagged cyno VEGFR1 [3]", "value": 261, "unit": "pM"}, {"measurement": "Max % Inh.", "setting": "His tagged cyno VEGFR1 [3]", "value": 100, "unit": "%"}]}
{"binder": "human PlGF (ligand, UniProt P49763-2 19-149, looked up, ligand on human and cyno VEGFR1; also called placental growth factor) LPAVPPQQWALSAGNGSSEVEVVPFQEVWGRSYCRALERLVDVVSEYPSEVEHMFSPSCVSLLRCTGCCGDENLHCVPVETANVTMQLLKIRSGDRPSYVELTFSQHVRCECRPLREKMKPERCGDAVPRR", "values": [{"measurement": "IC50", "setting": "[4]", "value": 8920, "unit": "pM"}, {"measurement": "Max % Inh.", "setting": "[4]", "value": 98.6, "unit": "%"}, {"measurement": "IC50", "setting": "His tagged cyno VEGFR1 [5]", "value": 13300, "unit": "pM"}, {"measurement": "Max % Inh.", "setting": "His tagged cyno VEGFR1 [5]", "value": 99.2, "unit": "%"}]}
{"binder": "Domain 2 of hVEGFR1 alone (receptor, also called human VEGFR1 D2) DTGRPFVEMYSEIPEIIHMTEGRELVIPCRVTSPNITVTLKKFPLDTLIPDGKRIIWDSRKGFIISNATYKEIGLLTCEATVNGHLYKTNYLTHRQ", "values": [{"measurement": "Kd", "setting": "human VEGFA165 [6]", "value": 22000, "unit": "pM"}, {"measurement": "fold reduction in affinity", "setting": "human VEGFA165 [7]", "value": "~1000", "unit": "fold"}]}
{"binder": "VGFB883 (antibody, human IgG1, lambda, L234A L235A, V domains shown, human IgG1 (L234A/L235A/D265S); also called N54Q variant of VGFB54) VH: EVQLLESGGGSVQPGGSLRLSCTASGFNFEDYGMNWVRQAPGKGLDWVSSINRQGDISTYHVDSVKGRFTISRDNSKNTLYLQMNSLRAEDTAIYYCTKNHDYHGMDVWGQGTTVTVSS VL: not shown", "values": [{"measurement": "Kd", "setting": "[8]", "value": "~0.2", "unit": "pM"}, {"measurement": "Kd", "setting": "[9]", "value": "~0.5", "unit": "pM"}, {"measurement": "Kd", "setting": "[10]", "value": "> 2000", "unit": "pM"}, {"measurement": "IC50", "setting": "[11]", "value": 65.5, "unit": "pM"}, {"measurement": "IC50", "setting": "[12]", "value": 44, "unit": "pM"}]}
{"binder": "mouse VEGFA164 (ligand, UniProt Q00731-2 27-190, looked up, also called VEGFA (mouse VEGFR1 columns)) APTTEGEQKSHEVIKFMDVYQRSYCRPIETLVDIFQEYPDEIEYIFKPSCVPLMRCAGCCNDEALECVPTSESNITMQIMRIKPHQSQHIGEMSFLQHSRCECRPKKDRTKPENHCEPCSERRKHLFVQDPQTCKCSCKNTDSRCKARQLELNERTCRCDKPRR", "values": [{"measurement": "IC50", "setting": "[13]", "value": 150, "unit": "pM"}, {"measurement": "Max % Inh.", "setting": "[13]", "value": 99.9, "unit": "%"}]}
